Source: the supplement of paper PMC10724198
± gives the standard deviation of the averaged measurements.

How the values were obtained:
Saccharomyces cerevisiae [1] = test: protein stability index of tFT-peptide fusion (C-terminal peptide) (PSI (0-1 scale)); higher = more stable (slower turnover); settings: genetic background: wild type; temperature: 30 C
Saccharomyces cerevisiae [2] = test: as above
Method: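 MPS profiling in S. cerevisiae of the tFT-X12 degron library: putative degron peptides plus stable controls, 12 aa, fused to the C-terminus of a sfGFP-mCherry timer. Cells are FACS-sorted into 8 mCherry/sfGFP bins and deep-sequenced. PSI runs from 0 (unstable) to 1 (stable). Backgrounds are wild type, das1Δ and doa10Δ at 30 °C, and wild type, das1Δ, cdc34-1 and cdc53-1 at 37 °C; 2-3 technical replicates each.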

[3] = genetic background: cdc34-1, temperature: 37 C
[4] = genetic background: cdc53-1, temperature: 37 C
[5] = genetic background: das1 deletion, temperature: 30 C
[6] = genetic background: das1 deletion, temperature: 37 C
[7] = genetic background: doa10 deletion, temperature: 30 C
[8] = genetic background: wild type, temperature: 30 C
[9] = genetic background: wild type, temperature: 37 C
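Also: PSI is a weighted mean of sequencing reads over stability bins, variants kept only with over 10 reads, mCherry proximal and sfGFP distal, peptide attached via GGGS linker.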

| Sequence | protein stability index (Saccharomyces cerevisiae [1]) | protein stability index (Saccharomyces cerevisiae [2]; [3]) | protein stability index (Saccharomyces cerevisiae [2]; [4]) | protein stability index (Saccharomyces cerevisiae [2]; [5]) | protein stability index (Saccharomyces cerevisiae [2]; [6]) | protein stability index (Saccharomyces cerevisiae [2]; [7]) | protein stability index (Saccharomyces cerevisiae [2]; [8]) | protein stability index (Saccharomyces cerevisiae [2]; [9]) |
| --- | --- | --- | --- | --- | --- | --- | --- | --- |
| LMFSRSLFIVKC | 0.295 ± 0.043 | 0.435 ± 0.035 | 0.438 ± 0.051 | 0.36 ± 0.038 | 0.514 ± 0.018 | 0.168 ± 0.0054 | 0.178 ± 0.025 | 0.343 ± 0.037 |
| LFIWFVSSPFYC | 0.452 ± 0.023 | 0.517 ± 0.025 | 0.5998 ± 0.0054 | 0.451 ± 0.017 | 0.63068 ± 0.0006 | 0.3134 ± 0.0029 | 0.343 ± 0.033 | 0.547 ± 0.01 |
| LRTLVFIWFMYV | 0.19 ± 0.067 | 0.296 ± 0.045 | 0.481 ± 0.058 | 0.273 ± 0.035 | 0.4851 ± 0.0041 | 0.126 ± 0.0092 | 0.143 ± 0.024 | 0.2612 ± 0.00061 |
| GGLGIVWLWLVV | 0.378 ± 0.047 | 0.344 ± 0.021 | 0.42 ± 0.024 | 0.307 ± 0.033 | 0.4926 ± 0.0048 | 0.234 ± 0.016 | 0.282 ± 0.02 | 0.467 ± 0.016 |
| VAVGFVLGLCVV | 0.447 ± 0.011 | 0.392 ± 0.042 | 0.418 ± 0.013 | 0.348 ± 0.03 | 0.4701 ± 0.0042 | 0.31 ± 0.012 | 0.35 ± 0.021 | 0.431 ± 0.012 |
| VFFCLCLCLFFV | 0.368 ± 0.031 | 0.432 ± 0.023 | 0.463 ± 0.012 | 0.341 ± 0.018 | 0.473 ± 0.028 | 0.299 ± 0.0062 | 0.314 ± 0.022 | 0.45 ± 0.036 |
| IYVLLDVNYHLP | 0.468 ± 0.042 | 0.509 ± 0.024 | 0.527 ± 0.0074 | 0.379 ± 0.024 | 0.543 ± 0.014 | 0.3542 ± 0.0026 | 0.361 ± 0.026 | 0.5681 ± 0.0038 |
| PPHPLHIPRRLA | 0.226 ± 0.033 | 0.631 ± 0.025 | 0.724 ± 0.026 | 0.691 ± 0.02 | 0.743 ± 0.017 | 0.185 ± 0.0086 | 0.218 ± 0.022 | 0.436 ± 0.048 |
| FLLLSCLVRRSF | 0.4628 ± 0.00075 | 0.508 ± 0.054 | 0.6 ± 0.018 | 0.454 ± 0.017 | 0.611 ± 0.01 | 0.404 ± 0.014 | 0.429 ± 0.0061 | 0.549 ± 0.018 |
| LPRDPLHAQIAS | 0.384 ± 0.069 | 0.647 ± 0.019 | 0.696 ± 0.0026 | 0.645 ± 0.019 | 0.6959 ± 0.0017 | 0.223 ± 0.0072 | 0.257 ± 0.031 | 0.516 ± 0.036 |
| VTVWLISRVTGL | 0.435 ± 0.0085 | 0.579 ± 0.034 | 0.67938 ± 0.00055 | 0.496 ± 0.017 | 0.647 ± 0.017 | 0.286 ± 0.035 | 0.314 ± 0.01 | 0.549 ± 0.018 |
